Measured values taken from PMC6312627.

Experiments:
[1] = molecular target: streptavidin-phycoerythrin (SA-PE) (UniProt P22629); test: bead-based flow cytometry; conditions: PBSMCT selection buffer (PBS with Mg2+, CaCl2, 0.01% Tween 20; full composition not in material), pH 7.4 or pH 5.2 (HCl); bead assays at RT, MST at 25 C with …
streptavidin (MST) [2] = molecular target: streptavidin (MST) (UniProt P22629); test: MST; conditions: PBSMCT selection buffer (PBS with Mg2+, CaCl2, 0.01% Tween 20; full composition not in material), pH 7.4 or pH 5.2 (HCl); bead assays at RT, MST at 25 C with …
streptavidin (MST) [3] = molecular target: streptavidin (MST) (UniProt P22629); test: MST; conditions: PBSMCT selection buffer (PBS with Mg2+, CaCl2, 0.01% Tween 20; full composition not in material), pH 7.4 or pH 5.2 (HCl); bead assays at RT, MST at 25 C with …; remark: listed apart in the source
streptavidin (MST) [4] = molecular target: streptavidin (MST) (UniProt P22629); test: cited; conditions: PBSMCT selection buffer (PBS with Mg2+, CaCl2, 0.01% Tween 20; full composition not in material), pH 7.4 or pH 5.2 (HCl); bead assays at RT, MST at 25 C with …; cited from earlier work
[5] = molecular target: streptavidin-phycoerythrin (SA-PE) (UniProt P22629); test: bead-based flow cytometry; conditions: PBSMCT selection buffer (PBS with Mg2+, CaCl2, 0.01% Tween 20; full composition not in material), pH 7.4 or pH 5.2 (HCl); bead assays at RT, MST at 25 C with …; remark: listed apart in the source

Sequence	binding signal (% reduction vs S8) [1]	Kd [1]	Kd (streptavidin (MST) [2])	also measured
ATACCAGCTTATTCAATTATTGACCGCTGTGTGACGCAACACTCAATTCTTGGATCTCGCGGCACACAGATAGTAAGTGCAATCT [S8 G61]	75	–	–	–
ATACCAGCTTATTCAATTATTGACCGCTGTGTGACGCAACACTCAATACCTTCTCAACGTTCTCTGTAGATAGTAAGTGCAATCT [S3]	–	24.2 nM	–	–
ATTGACCGCTGTGTGACGCAACACTCAAT [SBA29]	–	10.4 nM	6.1 nM	Kd (streptavidin (MST) [3]): 27 nM; Kd (streptavidin (MST) [4]): 40 nM; Kd [5]: 3.5 nM
ATACCAGCTTATTCAATTATTGACCGCTGTGTGACGCAACACTCAATTCTTGGATCTCGCTGCACACAGATAGTAAGTGCAATCT [S8]	–	112 nM	10 nM	–
ATACCAGCTTATTCAATTATTGACCGCTGTGTGACGCAACACTCAATTCTTGGATCTCGCTTCACACAGATAGTAAGTGCAATCT [S8 T62]	65	–	–	–
